Experimental data taken from US6312907.

Legend:
[1] = target: Bovine decorin (Dcn) purified from fetal skin (bovine) (UniProt P21793); assay: microtiter wells coated with increasing amounts of Dbps, biotin-labeled Dcn bound for 1 hour
[2] = target: Bovine decorin (Dcn) purified from fetal skin (bovine) (UniProt P21793); assay: competition: Dcn-coated wells preincubated with 200 ng protein, then B. burgdorferi N40; ELISA
[3] = target: B. burgdorferi N40 spirochetes (low-passage, intact cells); assay: competition: spirochetes preincubated with unlabeled competitor, then 125I-labeled Dcn

Substance | activity compared with DbpA:549 [1] | percent inhibition of attachment of B. burgdorferi N40 to Dcn [2] | percent inhibition of binding of 125I-labeled Dcn [3]
DbpA:C25A (site-directed mutant of DbpA:549) | < 80% | 93% | –
aggrecan isolated from bovine cartilage | – | – | < 10%
fibrinogen (KabiVitrium) | – | – | < 10%
thyroglobulin type II (Sigma) | – | – | < 10%
DbpA:549 (recombinant polyhistidine fusion of DbpA of B. burgdorferi strain 297 lacking nine amino terminal residues) | – | 93% | –
fetuin type IV (Sigma) | – | – | < 10%
bovine serum albumin (BSA) (from UniProt P02769) | – | – | < 10%
